These are literature values, as cited in patent publication US20060275806.

A word on the Kd: it is the equilibrium constant for the complex coming apart.

Where two headings read alike, the source gives them in different places.

One data set relates to MLL MT domain. To be noted: method not given.
Data set [1] deals with MDBP2 (methylated DNA binding protein 2). To be noted: method not given.

On to unmethylated CpG DNA, for which, in the data set on MLL MT domain, the Kd is 33 nM.

On to non-specific DNA, for which the equilibrium dissociation constant (Kd) in data set [1] (error 46.8 nM) is 189 nM.

Turning to DNA with single fully methylated CpG, the dissociation constant Kd in data set [1] (5mC at CpG, both strands, error 0.08 nM) was 2.7 nM.
